The nature of the data set: soluble on expression in E. coli; label from the status in PepcDB or PDB records.
Consider “MPEPTPTAYPVRLDELINAIKRVHSDVLDQLSDAVLAAEHLGEIADHLIGHFVDQARRSGASWSDIGKSMGVTKQAAQKRFVPRAEATTLDSNQGFRRFTPRARNAVVAAQNAAHGAASSEITPDHLLLGVLTDPAALATALLQQQEIDIATLRTAVTLPPAVTEPPQPIPFSGPARKVLELTFREALRLGHNYIGTEHLLLALLELEDGDGPLHRSGVDKSRAEADLITTLASLTGANAAGATDAGATDAG”, for which the “soluble on expression in E. coli” value is on record as “soluble”.
For “MSPLASRALSFLGALSLLTFAATPVLAESTPTAAPPQFAVESPKAASSLLLSVAHAGKRLVAVGDRGHILLSDDDGKTWTQAKVPTRQLLTSVFFVNERKGWAVGHDAQILVSDDAGSTWARQFEDLGREAPLLDIWFADEQHGLAVGAYGALLETRDGGQHWEDVSERLDNEDQFHLNAIAAVKDNGLLVVGEAGSLFRSKDWGATWEKLEGPYEGSLFGAIGTADAGGVLVYGLRGHLFRSADFGDSWEEIPLKAASGDLEFGLSDGALLADGRIVVVGHGGSVLESTDGGRSFSVFNRPDRLSLAGVSATGDGHLILVGQGGVHLAAANGAALEQQQLEHHHHHH”, the “soluble on expression in E. coli” value is “not soluble”.
With “ECPVFEPSWAEFRDPLGYIAKIRPIAEKSGICKIRPPADWQPPFAVEVDNFRFTPRIQRLNEL” the entry was “not soluble”.
Regarding “MSLLGAAESTLEFYDLSHPWGHGAPAWPYFEDVQIERLHGMAKSRVLTQKITTVMHSGTHIDAPAHVVEGTPFLDEIPLSAFFGTGVVVSIPKGKWGMVTAEDLQNATPDIRPGDIVVVNTGWHHKYADSAEYYAYSPGFDKKAGEWFAAKGVKAVGTDTQALDHPLATAIAPHSPAEAQGGLLPWAVREYEAQTGRKVLDDFPDWEPCHRAILSQGIYGFENVGGDLDKVTGKRVTFAAFPWRWVGGDGCIVRLVAIVDPTGSYRIETGKAVEGHHHHHH”, the “soluble on expression in E. coli” value is reported as “soluble”.
In the case of “MRMKALLIDYGSGNLRSAAKALEAAGFSVAVAQDPKAHEEADLLVLPGQGHFGQVMRAFQESGFVERVRRHLERGLPFLGICVGMQVLYEGSEEAPGVRGLGLVPGEVRRFRAGRVPQMGWNALEFGGAFAPLTGRHFYFANSYYGPLTPYSLGKGEYEGTPFTALLAKENLLAPQFHPEKSGKAGLAFLALARRYFEVL”, the “soluble on expression in E. coli” value was “soluble”.
As for “MASSSSAALRPFGTARLTPGRQTGRQTQQQISAPEPMIAIALSDMEYLMRSARSSRSSGRSERQPGCTCCCHIAAGVTVIPRVARFSIEGGLSTHTLMNHSDNRIAVKITCSDNNMYRVTPVYATVEPGQSLPLHIARITSDLIKRDRLCVNILEADGNKEAREIFKKNANTRAPASINMALEATNDNQNHHHQE”, the “soluble on expression in E. coli” value is “not soluble”.
For “MQYTLKQISEHLNAKVINEPSGEVIITGLTYAEQAKENDLTLIDKQEHIKLWQNSKATAAIVSKKISKELAQVNDKPLIVVNNADLAMAKILELFSVPYPEQNGIHEKAIIDPTAKIGKNVSIGPSAYIGKNVEIGDNTIIYANVCIYNDAKVGTNCIIWPSVIIRDRTIIGHFCRLCSNCSIGSDGFGYRPSEDGRTIVRIPHIGNVVIGSFVDIGSNTCINNAKYGSTIIGDYTKIDNLVQIGHNVIIGKGCMICGQAGISGSVTIGDGVIIAGNAGIKDHTNIGSDARIGGKAGVMWDVPAGESHMGYPAYKDSELAKQWIAIRKLPETMKKLKAIAKSLNIDL” the value was “not soluble”; for “MGSDKIHHHHHHMLTHYRDYESFKQVAIPLLERRPDVHQLPLGILERGDVPILMAIAEEGDRTIVVLQTIEEQAILAGDVFTYEGIRKLSRILNCPGYVGEQAIIEPLLASHSPFQIKMDQGIYTLTTVIPPVTLDYEFRLIEERFAPQAVAFGWSFIQETGALPATERSRLKNEQTIRKHIEAETLFGLFDGEQLLAMASSSRPTASGVTISYVFTPPKWRKQGIASYLVACLSEHLLQQYPMVSLYTDWSNKTSNKIYQAVGFELAGRSMQITKRPKYQ”, “not soluble”.
Consider “MHRRSIINHSRPDKLKRGMHVEIASNVINDLQFFDQQIRWAKADLVQQVSRNRLNRARTYRGYLNQCLPHELVADIQRAVIKSINAISLINLEHHHHHH”, for which the “soluble on expression in E. coli” value is “not soluble”.
For “MSLVFYGRRLTEAIEVLKQSKISIMLANKGPLIYYRRTGGFPEGPVEKALGLSSLDDLVICPVHSVQPEVSTYLLLRLRTPFIIPPRSTATIYLKAPVAAGVYVTANGEQRLVDYFGPSVFKYALYGPPAVGQVCRFYITDIFSEVPEAGPWEAVTKVVVENTSDNYVEIRNVIYPIVYAQFYIDNMGNAYLETSKLSITSSNVGVVELRNEPPISGLPTCLKTEGGLPLPFLKPAGEKIAKFLMEFGLEGHHHHHH” the value was “not soluble”.
For “SLSERTFNWKNKDIRAQVDVVDSKLLPTLLLRNALVLNPYVKQWLKKNIWIYQDRIVYVGHELPNRAEEIHTIDCEGKYIVPGYIEPHAHPFQIYNPQTLAEYVSQYGTTTFVNDNLFLLLQSGKKKALTILNELKKQPVQYFWWSRYDLQTEVLNEDHVLPFDVRKQWIEHPDVIQGGEMTGWPRLVDGDDLMLHCMQATKKQRKRIEGHFPGASDKTLTKMKLFGADCDHEAMTGDEVMRRLELGYYVSLRNSSIRPDVRKILQELHEKGFRYYDHFFYTTDGATPNFYKGGMTNELIRIALEEGVPAIDAYNMASFNIAKYYQMDDYLGVVGPGRLASLNILEDPLNPNPVTVLSKGTILRENGCDLKAFTKTDWHKGGLVPLELSYDMTMDDLQFSMPMGVKMRNAVIMEPYMIEIDNSMEQLSFDHDESYLTMLDRHGKWRVNTMIKGFASSVQGFVSSFTTTGDIVAIGKNKADMLLAFARMKEIGGGIVLAENGNILHEIPLALCGCASSEAYEDVLEKEQKLRDLLTERGYEFCDPIYTLLFLQSTHLPYIRITPRGIFDVMKKTVLFPSIMR”, the “soluble on expression in E. coli” value was “soluble”.
For “FHPHTKGSQILMDLSHKAVKRQASFCNAITFSNRPVLIYEQVRLKITKKQCCWSGALRLGFTSKD” the value was “not soluble”.
With “MPLTLNQLAELSGRASEHVLAEEVEETGTPAEEILARLRERLAVMRDSVRRGLASDAPSVAGLVGKNAKTLWEAPDPLQDPLLKRVQAYAMAVNEENARMGRIVAAPTAGSAGTLPGALLGVADHLGIPDEELLMPLVLAGGVAKMIGRVIHIAGASGGCQAEIGSSAAMAAAAVTELLGGTPEACAHAAALALQNTLGLVCDPVGGFVEVPCVMRNGFYAVHAVSAASMALAGIRSVIPPDEVVLAMAGIGRLLPLELKETGLGGLADTPTGRRLAEEALKKT” the entry was “soluble”.
With “MAGHVNGTCAPVIPKVGDEEDGVGQLVANLKEKGTNFVLLKKTPQILELQTILKDRFCGKINDFRYFCRKNLLILNKLLFCLKKRFSWNLDFKNPLIHKFSGQKRHFKRFCQIFSDFESKFRYFHKFPGPKRSTNHSDFVFNADRLMRLVIEECLNHLPFTEHTVTTPTGFKYEGIQFNRGNCGVSLCRSGEAMEVSLRQCCRCIRIGKILIGDEQKVLYARLLPDITSRRVLLLYPTIGSGTTVCKAIEVLKEARVPDENIYLVSLFISPTGLKNITRKYPYITVVASDITSLYPNHFSTSYFGAV” the entry was “not soluble”; with “MTDGPIKVNSEIGALKTVLLKRPGKELENLVPDYLDGLLFDDIPYLEVAQKEHDHFAQVLREEGVEVLYLEKLAAESIENPQVRSEFIDDVLAESKKTILGHEEEIKTLFATLSNQELVDKIMSGVRKEEINPKCTHLVEYMDDKYPFYLDPMPNLYFTRDPQASIGHGITINRMFWRARRRESIFIQYIVKHHPRFKDANIPIWLDRDCPFNIEGGDELVLSKDVLAIGVSERTSAQAIEKLARRIFENPQATFKKVVAIEIPTSRTFMHLDTVFTMIDYDKFTMHSAILKAEGNMNIFIIEYDDVNKDIAIKQSSHLKDTLEDVLGIDDIQFIPTGNGDVIDGAREQWNDGSNTLCIRPGVVVTYDRNYVSNDLLRQKGIKVIEISGSELVRGRGGPRCMSQPLFREDI”, “not soluble”.
With “MGSDKIHHHHHHMTHQNSPLFLKSALRLYNRASFKASHKVIEEYSTSFSLSTWLLSPRIRNDIRNLYAVVRIADEIVDGTAHAAGCSTAKIEEILDAYEIAVLAAPQQRFNTDLVLQAYGETARRCDFEQEHVIAFFASMRKDLKANTHDPDSFTTYVYGSAEVIGLLCLSVFNQGRTISKKRLEIMQNGARSLGAAFQKINFLRDLAEDQQNLGRFYFPKTSQGTLTKEQKEDLIADIRQDLAIAHDAFPEIPVQARIGVISAYLLFQKLTDRIEATPTADLLRERIRVPLHIKLSTLARATMKGLSMSIYRKNS”, the “soluble on expression in E. coli” value is recorded as “not soluble”.
With “MKPKKRQMEYLTRGLIAVQTEQGVFVSWRFLGTDHETTAFHLYRDGKRITRDPIAESTNFLDQNGTADSVYQVAAVNKGREEKLSKKARVWQENVLEVPLAKPEGGVTPDGKPYTYSANDASVGDIDGDGEYEMILKWDPSNSKDNAHDGYTGEVLIDAYKLDGTFLWRINLGRNIRAGAHYTQFMVYDLDGDGKAEIAMKTADGTTDGKGHIIGDEQADFRNEQGRILSGPEYLTVFKGETGEALTTVEYEPPRGKLEDWGDGYGNRMDRFLAGTAYLDGERPSLVMARGYYTRTVLVAYDFRNGRLKKRWVFDSNQPGHEAYAGQGNHSLSVADVDGDGKDEIIYGAMAVDHDGTGLYSTGLGHGDAMHVGDLDPSRKGLEVFQVHEDATKPYGLSLRDAGTGEILWGVHAGTDVGRGMAAHIDPSYKGSLVWGIDPPGNDGMSYGLFTSKGEKISDKAPSSANFAIWWDGDLVRELLDHDWDGTIGRPKIEKWDAENGCLKTIFQPAGVLSNNGTKGNPVLQANLFGDWREEVIWRTEDSSALRIYTTTHLTRHCFYTLMHDPVYRLGIAWQNTAYNQPPHTSFYLGTGMKKPPKPALYIAGSKAEAPLLEHHHHHH” the entry was “soluble”; with “MAHHHHHHSLIISSLTNPNFKVGLPKVIAEVCDYLNTLDLNALENGRHDINDQIYMNVMEPETAEPSSKKAELHHEYLDVQVLIRGTENIEVGATYPNLSKYEDYNEADDYQLCADIDDKFTVTMKPKMFAVFYPYEPHKPCCVVNGKTEKIKKLVVKVPVKLIEG”, “not soluble”.
For “MGSDKIHHHHHHMPMRKEQQSRPDLRVLKSLMVCATIAASLILHSPSLMAAEEATGATSTAPSACSINPSEKLKNLFTEVKQYLGIRYRFGGDTPSGFDCSGFVRFMFNKEFNVNLPRSSREMATIGTRIDRNELRPGDLVFFKNAEDRINHVGIFVGNDTFVHSSLSKGITRDTLNESYYSKRFATGVRILDIQGNRIPDDFNNLFDESNNGNSPS” the value was “not soluble”.
With “MGSDKIHHHHHHMGERTEDYRYVKTQHKIYTALIALLKKRAFDDITVRDLCQAAQVSRSGFYLHFVDKYDLVDSYGRDLVKMGMRLFYANRGNGLETLYTELLTLINEQGDLITLLLSRKGSVEIQNQIKNQLRQNAADNILPYYGIKNQSPVAQRYLIAMTTGAVLSILQEWLDSGKQESPAELVAVMQEQVMPTLQRSQFRL”, the “soluble on expression in E. coli” value is listed as “not soluble”.
For “MTPGFPLPKPDVLSRPFWDFAQRGVLSLQRCRHCGDVHFPAAPVCPACLSEQQEWVPASGRGTLFSWCEFHKGYWDSVASLLPYRVAVIKLNEGPLLISNLVDVADCAALRADAPVEVVFRPVSADINLPVFRLRHAY” the value was “not soluble”; for “MEERELVEYFRGQIREDPDVASAVAAIRSLLEFLKRDQSETILGLRENMTQAIHRLQEADPSVAVSSGGELFLRFISLTSLEHPDLSQCKNVMIERGELFLKKISLSRGKVGKLCHTFIKDGAKILTHSSSRVVLKVLENAAADNKRFTVKLMAEKLRKLSIPVTVVLDAAVGYILEKVDLVIVGAEGVVESGGVINKIGTYQMAVCSKAHNKPFYVVAESFKFVRLYPLNQQDVPDRFKYKADVLKTAEDLNQEHPLIDYTPSSLITLLFTDLGVLTPSAVSDELIKLYL”, “soluble”.

These data come from the DeepSol protein solubility set.
